In publication PMC10681739, “High-throughput data and modeling reveal insights into the mechanisms of cooperative DNA-binding by transcription factor proteins”:

B1: Table S2 A row 1604 (dsDNA)
DNA 1: GGTGTGTTCTGGGGAGGAAGTGGGTTTTCAGGTTGT
DNA 2: ACAACCTGAAAACCCACTTCCTCCCCAGAACACACC
B2: Table S2 A row 99 (dsDNA)
DNA 1: CTTAGCACTTCAGCCGGAAACCACAGCATACATTTC
DNA 2: GAAATGTATGCTGTGGTTTCCGGCTGAAGTGCTAAG
B3: Table S2 A row 489 (dsDNA)
DNA 1: TCTAAATCACTTCCTGTTACAGAAACCACAGGCCTG
DNA 2: CAGGCCTGTGGTTTCTGTAACAGGAAGTGATTTAGA
B4: Table S2 A row 1132 (dsDNA)
DNA 1: GCGCAAAGCCGGAAGGAGGGGTTTGCGGCTGGGGAG
DNA 2: CTCCCCAGCCGCAAACCCCTCCTTCCGGCTTTGCGC
B5: Table S2 A row 1174 (dsDNA)
DNA 1: CCTGCGGATCACGGAAGTGGCTGCGGTCGGCGCCAT
DNA 2: ATGGCGCCGACCGCAGCCACTTCCGTGATCCGCAGG
B6: Table S2 A row 456 (dsDNA)
DNA 1: AACAGGCAAAGGACAGGATGTGGTGAGCGTCGGCCC
DNA 2: GGGCCGACGCTCACCACATCCTGTCCTTTGCCTGTT
B7: Table S2 A row 721 (dsDNA)
DNA 1: AGTGCAGAGTGGACAGGATGTGGTGGAGGTGAGAGA
DNA 2: TCTCTCACCTCCACCACATCCTGTCCACTCTGCACT
B8: Table S2 A row 1755 (dsDNA)
DNA 1: CAGAGCCAAACATGCGGAAGTGGTTACGTGTACTAG
DNA 2: CTAGTACACGTAACCACTTCCGCATGTTTGGCTCTG
B9: Table S2 A row 1319 (dsDNA)
DNA 1: GAGGAACCCAAAGTAGGATGTGGTTTTGCAATTGGA
DNA 2: TCCAATTGCAAAACCACATCCTACTTTGGGTTCCTC
B10: Table S2 A row 568 (dsDNA)
DNA 1: GTGGGGCAGGATGTGCTTGCCTGGCTGCGGTTGGAC
DNA 2: GTCCAACCGCAGCCAGGCAAGCACATCCTGCCCCAC
B11: Table S2 A row 364 (dsDNA)
DNA 1: AATGAAGGAGGGGCAGGATGTGGTCTTGGTGAATCA
DNA 2: TGATTCACCAAGACCACATCCTGCCCCTCCTTCATT
B12: Table S2 A row 288 (dsDNA)
DNA 1: CATAGACCGGATGCCTCGTCAACCACAGAAACCAAT
DNA 2: ATTGGTTTCTGTGGTTGACGAGGCATCCGGTCTATG
B13: Table S2 A row 702 (dsDNA)
DNA 1: CACCTCCTCTCCGGATGCGGTTTGTTCTGCTTGTAG
DNA 2: CTACAAGCAGAACAAACCGCATCCGGAGAGGAGGTG
B14: Table S2 A row 1419 (dsDNA)
DNA 1: TTCACTTCCACCACTTCCTGTGGGTTTTGTTCATCC
DNA 2: GGATGAACAAAACCCACAGGAAGTGGTGGAAGTGAA
B15: Table S2 A row 309 (dsDNA)
DNA 1: CTTAGAGTACCAGGATGTGGTTTGGCCTGGGGGTGG
DNA 2: CCACCCCCAGGCCAAACCACATCCTGGTACTCTAAG
B16: Table S2 A row 147 (dsDNA)
DNA 1: GCAGTCAGAAGGTGCGGATGCGGTAAGGTATGCGCT
DNA 2: AGCGCATACCTTACCGCATCCGCACCTTCTGACTGC
B17: Table S2 A row 793 (dsDNA)
DNA 1: GTTCAGCAGGAAGTGGATGTGGATGTGTGGTTGCCA
DNA 2: TGGCAACCACACATCCACATCCACTTCCTGCTGAAC
B18: Table S2 A row 866 (dsDNA)
DNA 1: CTGAAACAGGAAGCTGAGGGTGCGGTTGGGGGAGGA
DNA 2: TCCTCCCCCAACCGCACCCTCAGCTTCCTGTTTCAG
B19: Table S2 A row 1234 (dsDNA)
DNA 1: GCTGGTATGGCAGGAAGTTTCTCACCACAGTATACT
DNA 2: AGTATACTGTGGTGAGAAACTTCCTGCCATACCAGC
B20: Table S2 A row 517 (dsDNA)
DNA 1: GTTAGCGTGATCGGAGGATGTGGTTTTCCTCCCTCT
DNA 2: AGAGGGAGGAAAACCACATCCTCCGATCACGCTAAC
B21: Table S2 A row 658 (dsDNA)
DNA 1: AGCTAGGACAGGATGTGAAAACCACACTGACAAAGT
DNA 2: ACTTTGTCAGTGTGGTTTTCACATCCTGTCCTAGCT
B22: Table S2 A row 123 (dsDNA)
DNA 1: TTTATCATGAATGCAGGATGTGGGCAGACTCACAGC
DNA 2: GCTGTGAGTCTGCCCACATCCTGCATTCATGATAAA
B23: Table S2 A row 1548 (dsDNA)
DNA 1: TGCAGTCGTGAAAAAGGAAGTGGTTAAAGTGGCTAC
DNA 2: GTAGCCACTTTAACCACTTCCTTTTTCACGACTGCA
B24: Table S2 A row 550 (dsDNA)
DNA 1: AGCAGGTATACCACTTCCTGTGGTTATCATTTGAGG
DNA 2: CCTCAAATGATAACCACAGGAAGTGGTATACCTGCT
B25: Table S2 A row 155 (dsDNA)
DNA 1: GGGACAGACTCTCCAGGATGTGGTTGGATTTTGGGC
DNA 2: GCCCAAAATCCAACCACATCCTGGAGAGTCTGTCCC
B26: Table S2 A row 524 (dsDNA)
DNA 1: TATCTCCTATCTCCAGGAAGTGGTTAGCCCTAGGAG
DNA 2: CTCCTAGGGCTAACCACTTCCTGGAGATAGGAGATA
B27: Table S2 A row 1376 (dsDNA)
DNA 1: CTCTGGCAGGAAGCTCTGAGGGCTAAACCACAAAAA
DNA 2: TTTTTGTGGTTTAGCCCTCAGAGCTTCCTGCCAGAG
B28: Table S2 A row 990 (dsDNA)
DNA 1: TCCTAAAGCAGGAAATAGTGAGGCTACCGCAGTGTC
DNA 2: GACACTGCGGTAGCCTCACTATTTCCTGCTTTAGGA
B29: Table S2 A row 132 (dsDNA)
DNA 1: CGTCTAATTGCAGGAAGTGGTTTGAAATGTTAATCT
DNA 2: AGATTAACATTTCAAACCACTTCCTGCAATTAGACG
B30: Table S2 A row 186 (dsDNA)
DNA 1: GAAGTGTGCTCTTCCGGTACCTGCGGTTCGTTGCGC
DNA 2: GCGCAACGAACCGCAGGTACCGGAAGAGCACACTTC
B31: Table S2 A row 1276 (dsDNA)
DNA 1: ATTTCGCTGAAAACAGGAAACCACGAAGCCCAGATG
DNA 2: CATCTGGGCTTCGTGGTTTCCTGTTTTCAGCGAAAT
B32: Table S2 A row 1115 (dsDNA)
DNA 1: TCAATGACAGGAAGTTTTTAAACCACATACGGCTAA
DNA 2: TTAGCCGTATGTGGTTTAAAAACTTCCTGTCATTGA
B33: Table S2 A row 1496 (dsDNA)
DNA 1: GCACTGTAGGCAGGATGTGGGCAGGGGAAACTCAGG
DNA 2: CCTGAGTTTCCCCTGCCCACATCCTGCCTACAGTGC
B34: Table S2 A row 1302 (dsDNA)
DNA 1: AACAGACAGGATGTGGCCTCTGCCAAAACCACCATC
DNA 2: GATGGTGGTTTTGGCAGAGGCCACATCCTGTCTGTT
B35: Table S2 A row 316 (dsDNA)
DNA 1: GGCCTGTCACACACAGGAAGCGGTCACAGAAAAGCT
DNA 2: AGCTTTTCTGTGACCGCTTCCTGTGTGTGACAGGCC
B36: Table S2 A row 1404 (dsDNA)
DNA 1: ATAGACTCAGGAAGTGATTGTGGTAAGATTCTATAT
DNA 2: ATATAGAATCTTACCACAATCACTTCCTGAGTCTAT
B37: Table S2 A row 1188 (dsDNA)
DNA 1: CCCACTGCGCCAGGATGTGGTCAGGTCGGTGACGTT
DNA 2: AACGTCACCGACCTGACCACATCCTGGCGCAGTGGG
B38: Table S2 A row 1364 (dsDNA)
DNA 1: CTCAGGGTACCAGGATGTGGTTTAGCTTAGGGGTGG
DNA 2: CCACCCCTAAGCTAAACCACATCCTGGTACCCTGAG
B39: Table S2 A row 144 (dsDNA)
DNA 1: GCCACACTGGCGGAAATGGTGGTTACTGTTCGAGCC
DNA 2: GGCTCGAACAGTAACCACCATTTCCGCCAGTGTGGC
B40: Table S2 A row 332 (dsDNA)
DNA 1: AACAGGAAGTGGTCTTAGAGATCATGCGGTTCAGAG
DNA 2: CTCTGAACCGCATGATCTCTAAGACCACTTCCTGTT
B41: Table S2 A row 638 (dsDNA)
DNA 1: CAAGGCACCAACGGATGTGGTATCTGGTGAGGGCTT
DNA 2: AAGCCCTCACCAGATACCACATCCGTTGGTGCCTTG
B42: Table S2 A row 911 (dsDNA)
DNA 1: TTACACAACAGGAAACTATGTTTAGCGGTTAATCCA
DNA 2: TGGATTAACCGCTAAACATAGTTTCCTGTTGTGTAA
B43: Table S2 A row 1449 (dsDNA)
DNA 1: GGGTTGGGTGCCGGATGCGGTGAGTGAGGTTCTCAT
DNA 2: ATGAGAACCTCACTCACCGCATCCGGCACCCAACCC
B44: Table S2 A row 1610 (dsDNA)
DNA 1: ACACCTCAGGCAGGATGTGGTAGGGGTTGCCCCAGA
DNA 2: TCTGGGGCAACCCCTACCACATCCTGCCTGAGGTGT

target: ETS1:RUNX1 (Homo sapiens, UniProt P14921;Q01196 full;full); test: gcPBM; 1 nM ETS1 + 25 nM RUNX1, anti-ETS1 signal, normalised; details: tags: N-terminal GST (pDEST15), kept (PMC6008103); copies: 1;1; label: surface-attached array probe
Sequence (P14921 whole entry, chain 1 of 2): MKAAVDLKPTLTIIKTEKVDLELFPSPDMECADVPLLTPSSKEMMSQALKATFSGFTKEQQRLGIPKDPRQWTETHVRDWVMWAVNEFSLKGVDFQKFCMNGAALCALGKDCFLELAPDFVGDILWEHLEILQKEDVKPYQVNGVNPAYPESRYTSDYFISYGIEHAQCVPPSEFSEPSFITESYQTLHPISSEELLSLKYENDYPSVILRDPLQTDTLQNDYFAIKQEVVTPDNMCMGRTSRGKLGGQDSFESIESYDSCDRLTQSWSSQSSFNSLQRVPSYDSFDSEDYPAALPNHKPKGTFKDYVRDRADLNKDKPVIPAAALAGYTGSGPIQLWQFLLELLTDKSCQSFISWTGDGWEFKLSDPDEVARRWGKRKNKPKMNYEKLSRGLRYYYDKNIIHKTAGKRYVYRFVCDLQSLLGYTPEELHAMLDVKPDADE
Sequence (Q01196 whole entry, chain 2 of 2): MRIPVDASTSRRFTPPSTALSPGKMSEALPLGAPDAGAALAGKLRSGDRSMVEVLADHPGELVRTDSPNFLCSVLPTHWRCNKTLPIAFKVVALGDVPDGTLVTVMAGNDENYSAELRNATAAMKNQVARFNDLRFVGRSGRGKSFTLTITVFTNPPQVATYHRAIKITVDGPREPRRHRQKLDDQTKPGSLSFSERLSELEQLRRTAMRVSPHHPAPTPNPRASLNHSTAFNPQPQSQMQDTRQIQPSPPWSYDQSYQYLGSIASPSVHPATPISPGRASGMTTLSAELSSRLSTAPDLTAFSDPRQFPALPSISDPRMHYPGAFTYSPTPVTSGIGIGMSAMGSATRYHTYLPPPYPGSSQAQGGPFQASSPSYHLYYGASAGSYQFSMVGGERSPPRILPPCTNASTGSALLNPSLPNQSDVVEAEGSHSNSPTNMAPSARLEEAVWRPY

Binder	binding signal
B1	7210 PBM fluorescence, median of replicate spots
B2	10100 PBM fluorescence, median of replicate spots
B3	13000 PBM fluorescence, median of replicate spots
B4	7650 PBM fluorescence, median of replicate spots
B5	11700 PBM fluorescence, median of replicate spots
B6	10800 PBM fluorescence, median of replicate spots
B7	9260 PBM fluorescence, median of replicate spots
B8	6770 PBM fluorescence, median of replicate spots
B9	6860 PBM fluorescence, median of replicate spots
B10	11400 PBM fluorescence, median of replicate spots
B11	7160 PBM fluorescence, median of replicate spots
B12	11200 PBM fluorescence, median of replicate spots
B13	12500 PBM fluorescence, median of replicate spots
B14	7320 PBM fluorescence, median of replicate spots
B15	8550 PBM fluorescence, median of replicate spots
B16	7480 PBM fluorescence, median of replicate spots
B17	7060 PBM fluorescence, median of replicate spots
B18	6680 PBM fluorescence, median of replicate spots
B19	8760 PBM fluorescence, median of replicate spots
B20	12400 PBM fluorescence, median of replicate spots
B21	11800 PBM fluorescence, median of replicate spots
B22	6920 PBM fluorescence, median of replicate spots

Binder	binding signal
B23	12100 PBM fluorescence, median of replicate spots
B24	8000 PBM fluorescence, median of replicate spots
B25	7450 PBM fluorescence, median of replicate spots
B26	9680 PBM fluorescence, median of replicate spots
B27	8390 PBM fluorescence, median of replicate spots
B28	8320 PBM fluorescence, median of replicate spots
B29	7750 PBM fluorescence, median of replicate spots
B30	7140 PBM fluorescence, median of replicate spots
B31	7820 PBM fluorescence, median of replicate spots
B32	9230 PBM fluorescence, median of replicate spots
B33	9520 PBM fluorescence, median of replicate spots
B34	12700 PBM fluorescence, median of replicate spots
B35	7880 PBM fluorescence, median of replicate spots
B36	8880 PBM fluorescence, median of replicate spots
B37	9170 PBM fluorescence, median of replicate spots
B38	9440 PBM fluorescence, median of replicate spots
B39	6760 PBM fluorescence, median of replicate spots
B40	10100 PBM fluorescence, median of replicate spots
B41	6740 PBM fluorescence, median of replicate spots
B42	9030 PBM fluorescence, median of replicate spots
B43	10600 PBM fluorescence, median of replicate spots
B44	6800 PBM fluorescence, median of replicate spots
